Results published in publication PMC6765133 (Nucleic Acids Research, 2019).

Target: the molecule itself
Assay: SEC

| Protein | stoichiometry N |
| --- | --- |
| Deinococcus geothermalis DdrO (residues 12-140) (natural protein) MGSSHHHHHHSSGLVPRGSHMKLHERLRELRSERGLRLKDVAETAGISVPYLSDLERGRTNPSLETLQTLAGAYSITVHDLLEGVEFYGDSTEGALPKGLADLVADPLLGSQITPDWVRTLSRIELRGKRPRDKQDWYEIYLHLKRILG | 2 |
| DG-DdrO Y129A (natural protein) MGSSHHHHHHSSGLVPRGSHMKLHERLRELRSERGLRLKDVAETAGISVPYLSDLERGRTNPSLETLQTLAGAYSITVHDLLEGVEFYGDSTEGALPKGLADLVADPLLGSQITPDWVRTLSRIELRGKRPRDKQDWAEIYLHLKRILG | 2 |
| DG-DdrO R22A (natural protein) MGSSHHHHHHSSGLVPRGSHMKLHERLRELASERGLRLKDVAETAGISVPYLSDLERGRTNPSLETLQTLAGAYSITVHDLLEGVEFYGDSTEGALPKGLADLVADPLLGSQITPDWVRTLSRIELRGKRPRDKQDWYEIYLHLKRILG | 2 |
| DG-DdrO Y132A (natural protein) MGSSHHHHHHSSGLVPRGSHMKLHERLRELRSERGLRLKDVAETAGISVPYLSDLERGRTNPSLETLQTLAGAYSITVHDLLEGVEFYGDSTEGALPKGLADLVADPLLGSQITPDWVRTLSRIELRGKRPRDKQDWYEIALHLKRILG | 2 |
